This is an account of results in publication PMC6623548, “Targeting Mannitol Metabolism as an Alternative Antimicrobial Strategy Based on the Structure-Function Study of Mannitol-1-Phosphate Dehydrogenase in Staphylococcus aureus” (mBio, 2019).

Data set [1] addresses T1, mannitol-1-phosphate dehydrogenase (SaM1PDH) (Staphylococcus aureus, UniProt Q2FEX4).
T1 construct: gene mtlD
The data set can be described thus: F6P reductase activity, NADH absorbance, Lineweaver-Burk kinetics. The data set is classed as biochemical.

Data set [2] deals with O=P(O)(O)OC[C@@H](O)[C@@H](O)[C@H](O)[C@H](O)CO. The data set can be described thus: purified protein. As to conditions: NAD+ active site; phosphate moiety at Arg287 and Arg294 (docking, supported by mutants).
The subject of data set [3] is O=C(CO)[C@@H](O)[C@H](O)[C@H](O)COP(=O)(O)O. The data set can be described thus: purified protein. As to conditions: NADH active site; phosphate moiety at Arg287 and Arg294 (docking, supported by mutants).

pKi: −log10 of the molar value.

The compound `Cc1c(O)c(O)cc2c1CC=C1[C@@]2(C)CC[C@@]2(C)[C@@H]3C[C@](C)(C(=O)O)CC[C@]3(C)CC[C@]12C` [DHCL, dihydrocelastrol] showed a pKi in data set [1] of 5.40.

On to “mannitol-1-phosphate dehydrogenase (SaM1PDH) (Staphylococcus aureus subsp. aureus USA300)”, for which the Km in data set [2] was 188 µM; in data set [3], 88.6 µM.
